Results on 2 molecules are retold here after article doi:10.1101/2021.06.02.446813 (bioRxiv, 2021).

The target of experiment [1] is SARS-CoV-2 S1 protein (Sino Biological) (SARS-CoV-2, ancestral (Wuhan-Hu-1) …, UniProt P0DTC2). In words: ELISA. Background: An ELISA detects its analyte on a solid surface through an enzyme-linked reagent.
Experiment [2] has as its target SARS-CoV-2 RBD-SD1 (residues 306-577) (Severe acute respiratory syndrome …, UniProt P0DTC2). In words: BLI. A general note: Biolayer interferometry detects binding as a change in optical thickness at a sensor tip.

B1: antibody 5317-10 (IgG1) (antibody, V domains shown)
VH: EVQLVQSGAEVKKPGESLTISCKASGYRFTSNWITWVRQMPGKGLEWMGRIDPDDPYSNSSPSFQGHATLSLDKAINTAYLHWSSLKASDTAMYYCARVNRVGDGPDFWGQGTLVTVSS
VL: DIVMTQSPLSLPVTPGEPASISCRSSQSLLFGNGYTYLNWYLQKPGQSPQLLIYLGSNRASGVPDRFSVSGSGTDFTLIISRVEAEDVGVYFCMQALQTPWTFGQGTKVEIK
Turning to B1, in experiment [1], the binding result was “binds”.

B2: antibody 5317-4 (IgG1) (antibody, V domains shown)
VH: QVQLRLWGAGLLKPSETLSLTCAVSGGSFIDYYWTWIRQPPGKGLEWIGEINHFGGSGYNPSLKSRVSISVDTSKNQFSLRLNSVTAADTAIYYCARKPLLHSSVNPGAFDIWGQGTMLTVSS
VL: EIVLTQSPGTLSLSPGERAALSCRASQSVAGTYLAWYQQKPGQAPRLLIYGASSRATGIPDRFSGSGSGTDFTLTISRLEPEDFAVYYCQQYATSPRTFGQGTQLEIR
Consider B2, for which the binding result in experiment [2] was “binds”.
